In US20220242939A1:
Non-standard residues stand in square brackets, D forms with d. No end group written: not given here. Ahx = NCCCCCC(=O)O

Assays:
[1] = target: 4E6, recombinant IgG2c antibody; assay: inhibition ELISA: antigen in solution varied, antibody 4E6 at 0.05 µg/ml, plate coated with G200-BSA peptide
[2] = target: 4E6, recombinant IgG2c antibody; assay: inhibition ELISA 2nd protocol: antigen in solution varied, antibody 4E6, plate coated with G200-BSA peptide

Chain of 4E6, recombinant IgG2c antibody (VH, as listed by the source limits assumed, chain 1 of 2): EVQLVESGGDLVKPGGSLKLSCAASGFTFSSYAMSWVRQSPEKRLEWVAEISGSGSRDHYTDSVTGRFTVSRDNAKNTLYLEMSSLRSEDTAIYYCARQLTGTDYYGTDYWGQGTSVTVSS
Chain of 4E6, recombinant IgG2c antibody (VL, as listed by the source limits assumed, chain 2 of 2): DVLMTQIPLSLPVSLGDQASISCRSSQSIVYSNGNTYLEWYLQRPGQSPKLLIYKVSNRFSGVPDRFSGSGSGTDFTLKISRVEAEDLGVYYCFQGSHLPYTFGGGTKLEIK

- IC50 [1]: 2.9 ng/mL
- IC50 [2]: 11.5 ng/mL
B1: G200 N-terminal neo-epitope peptide GQPLQE-Acp-C (SEQ ID NO:50) conjugated to BSA (peptide)
peptide: GQPLQE[Ahx]C
modifications: not fully specified (residue 8); printed as GQPLQE-Acp-C; also: C-terminal Cys conjugated to BSA carrier
